Test: soluble on expression in E. coli; label from the status in PepcDB or PDB records

Sequence	soluble on expression in E. coli
MCLEDSDAGASNEYDSSPAAWNKEDFPWSGKVKDILQNVFKLEKFRPLQLETINVTMAGKEVFLVMPTGGGKSLCYQLPALCSDGFTLVICPLISLMEDQLMVLKQLGISATMLNASSSKEHVKWVHAEMVNKNSELKLIYVTPEKIAKSKMFMSRLEKAYEARRFTRIAVDEVHCCSQWGHDFRPDYKALGILKRQFPNASLIGLTATATNHVLTDAQKILCIEKCFTFTASFNRPNLYYEVRQKPSNTEDFIEDIVKLINGRYKGQSGIIYCFSQKDSEQVTVSLQNLGIHAGAYHANLEPEDKTTVHRKWSANEIQVVVATVAFGMGIDKPDVRFVIHHSMSKSMENYYQESGRAGRDDMKADCILYYGFGDIFRISSMVVMENVGQQKLYEMVSYCQNISKCRRVLMAQHFDEVWNSEACNKMCDNCCKDSAFERKNITEYCRDLIKILKQAEELNEKLTPLKLIDSWMGKGAAKLRVAGVVAPTLPREDLEKIIAHFLIQQYLKEDYSFTAYATISYLKIGPKANLLNNEAHAITMQVTKSTQNSFRAESSQTCHSEQGDKKMEAENLYFQSHHHHHHDYKDDDDK	soluble
MGSDKIHHHHHHMTELHREAFDYAPNMRRLRAVIAVAEAGSVMRAAEALHLSQPAVTRAVRDLEKELGLALFERHRSGMLCTTAGKIVLHRFRRALQQLIEAETALARLHPEGNFERLPQRLSHRQLTVLVAVADLHNEPLAAKRLGLTQPAVSGNLRDLERLLGIALFLRTQRGMLATDGGAVLIRHAKMALRELSLVSDDLSAWQGEVRGRVVIGTLPLSSSLLVPHAVDALLRELPGLNVTIIEGTYDALFESLRHGEIDILIGALRQAGTSEDTHQQRLFHDRLAVAARQGHPLMKHAALQLSDLLDAQWIAPRQGTPARVSFEQEFRSAGLQPPSVVVESGNLSTIRTLLLDSDRVTLVSPHQVFFEVQSGQLALLPIKLTGTLRPIGITTRADDSPTQALKVLKDILLTLGERMADPSSATRA	not soluble
MPRPPHLCTCGQLVPHGARCSCQIQRDRERKARFDQKRPSSRERGYTHEWRKARAEFLHQHPTCAFCGAPAGVVDHVIPHKGDMTLFWDRTNWQALCKPCHDRQKQMQERYNHIISLEHHHHHH	not soluble
SLNTPFSIDEVSFRDLPGWGQDDPRKLFPAMATILSHLRNAKPYRTGALGITAAELVSLLELAERGQVNSPEQARQFFETNSVPFRISPAQGKSGFVTAFYEPELEVSATPDDVWRYPIYRRPPELVDIDNDNRPDGFDPSYAFGKADEEGISYFPDRRAIDEGCLRGRGLEIAWARSKVDLFFVHVQGAARLVFPDGAIKRITYAAKAGHVFSPIGRLLLDRGELDPKTISMQTIRQWLADHPDEVDGVLWHNRSYIFFREADVAGLDMGPIAAAKVPLVAGRALAVDRLIHTFGLPFFIHAPTLTHLDDGKPFARLMLALDTGSAIVGPARGDIFTGSGFEAGELAGTVRNEADFYILLPRIAAERYRR	not soluble
MKNNQNSNIHLLRSAKHAEPVMLDIKQLVKTYDNGHQAVKGVDLSIHQGEFIVLVGPSGCGKSSILRSIAGLESITSGEIHLAGRRVDNEKPANRDIAMVFQNYALYPHMSVYDNLAYGLKNRGVDKQTIAAKIAKVAKTLKIEEYLDRKPAKLSGGQRQRVAMGRAIVRDPQLFLFDEPLSNLDAALRAHMRLEIKKLQRELGVTSVYVTHDQVEAMTLADRIVVVKQGEIEQVGTPAEVYHQPASTFVASFIGSPAMNFLPASIKQGQLHIAGKHCYLPQFDAMSSENITLGIRPEHASLHPLTNAIELKLDIQVVEPLGPNQLVHGKIIGLESEQDFIAVTAEIPLDVHQTLPIWVALEQLHLFDQQGKRFVQSHRSCTQSSKVASTRQQ	not soluble
MISIPKDEFQQIFVKDLMISSEKVAHVQIGNGLEHALLVLVKSGYSAIPVLDPMYKLHGLISTAMILDGILGLERIEFERLEEMKVEQVMKQDIPVLKLEDSFAKALEMTIDHPFICAVNEDGYFEGILTRRAILKLLNKKVRQHNR	not soluble
SGSHTALIEVKGMIADDEPASADNIVTALRAAFKDEGTKGIVLRINSPGGSPVQSGYIYDEIRRLRGEHPNVKVYAVISDLGASGAYYIASAADQIYADKASLVGSIGVTAASFGFVGTMEKLGVERRVYTSGEHKSFLDPFQPQKPEETQFWQQVLDTTHKQFIDSVKKGRGDRLKVEGHPELFSGLVWSGEQALQLGLIDGLGNASYVAREVVKEKKIEDYTVQESPFDRFAKKFGASVAERLALWMGWQGPVLR	not soluble
MSLTADPPACTVPAAGGSSTHKLVNGGADKLIFKIKSSNNNEYRIVPVFGFVDPSGSKDVVITRTAGAPKEDKLVVHFAPAPADATDAQAAFAAVTPAGTVTIPMSATA	not soluble
MSLAFGLDKLVDLLKAAGEPTRFRLLALLSAGDLTVTDLTEILGQSQPRISRHLKLLTEEGLIERYQEGAWAYFRLRQDGEPAVVVRQLLGAASPSDAVLQRDSERLATVKRVRAERAQDYFSRNASAWDELRRLHVSDEAVEGALLKLVGTTPIDSLLDLGTGTGRILQLLSGIYRRAIGVDASRDMLSVARANLDKAGVGNASVRHGDILNLPLEGQDFDLIVIHQVLHFLDQPEIALSEAARMLRPGGRLIVIDLAPHSFEYLRDEHAHVRLGFSHPLMEEWMKKAGLSLERAVDLHSEKASDEALDVTIWVARDQRLLMADDVVQEAVLLRSGRAEGHHHHHH	soluble
MNLASVLLLLAACHLSVSVNGQEHKEAIELSMANHDHVLGSAQVVFVAFCADWCPFSRRLKPIFEESARVFHQENPQASAVWAIVDSQRQADIGDKYFVNKYPTMKVFVNGELITKEYRSTRSVEALTNFVKFQLSTAINEFSSQDQLNQEMDKSKRNVVAWLKKDGPEFANLKKVASILREDCSFWVPTDHFGTQTNDNKLSFFDPDSNEEAKFTGNFNDYDFVKQWVTDKCIPLVREVTFENVEELTEEGMPFLIYFRDPDNKTTDKVFGEAVARELYDQRSAINPLLADGHKFAHPLKHLGKTKEDLPVLAIDSFQHMYLFPDMTQMNIPGKLREFVMDLHSGKLHKDFHENLDQRMIELAKAKAARGITDDHEAQAPSTRPIDTTPPPSVFKELKPSDKRYSILQKSEL	not soluble
MGSDKIHHHHHHMNDDIYDEMVRERGREYFLKNMVKYCVKRGNTLHGTVYGSDKYITKVDLKTKTGICTCPYQYNCKHAYALLESYKSGKYVDGDELFLNFSKLDKLEILKIFESIIEKHNLWDEFITEDKTLLDTAKNMLELTKIEKKNVFTFTSFLRNQFLKNAGNEELLLIIPDVIKYIQERKKLEEILFLIVDELFERGKTDKDTLKKLIELSRKYRELWMVKDNILDYEYFELLEY	not soluble
DIQMTQSPSSLSASVGDRVTITCRASGNIHNYLAWYQQKPGKAPKLLIYYTTTLADGVPSRFSGSGSGTDYTFTISSLQPEDIATYYCQHFWSTPRTFGQGTKVEIKR	soluble
MGSDKIHHHHHHMIEKTNPSHILLPEDSIKKYILPKYNLQDAEILQIKFKDTEKQRAVYKLTLGSKKYCLKKVYYDKGELLFVYSTTEWFFRHGINVTRILPTLDNSRFVIYSGMIFILMPWIDGLKCNYDKKEDLFKASKNLAHMHKCSQKFFSIQGSSIRYGFEHIYLSNKKHFEQILSFFNKAYEINDSFSKIALNNCDLCIKLSKIALNASSRIESRNFKKSLCHLDYVNKNIIFDKNNDIWVIDFDKCKFDYSVHDISYFMRRIMKRDNTRWNSELLINMLNVYEQINPLNLDEYLYILSYLVFPQKFWKICKDYYNNLSRCNKAAFINLIKSTTKYSELHLKFAYNFSNYIEGKFNVSLNL	not soluble
MKIAALYDIHGNYPALKEVLKQVKKLSPDLVVLGGDLIAGPMPLETLSLLKHVSTTFKTVGIMGNNDQDIVDIYAKKRVGLSRKATEQLTWIANQLSYKQVSFLRNLLPSISIGNYFFCHAVKNDNTTVFSPQQNKAYIETLFKGVQESYIICGHTHIQFELSLPNKKIINAGSIGMPFSNQFGAQWLWLDDNRIEYKRTIFNQQAAIQLISQTEYPFKNEFIANNLRSTISLSQGYSILNTLIRAQNAQHDLSLEHHHHHH	soluble
MVMIMRICIQPVGDVNDEILKFLKKKFGEVFGMCEILPKIDIPIYAYNFSRGQFNSTLILKSLPTVEDIVLGVTEVDIYADNLNFVFGEAELFGKRALISLARLRPEFYGLPPNKDVLKIRALKEAIHEIGHVLGLIHCENKRCVMSFSNSIIDVDLKDWRYCKKCLKKLQDRGIYISILEHHHHHH	not soluble

Reference: the DeepSol protein solubility set
